{"source": "the DeepSol protein solubility set", "data": [{"assay": "soluble on expression in E. coli; label from the status in PepcDB or PDB records", "values": [{"sequence": "MSMYTTAQLLAANEKKFKFDPLFLRLFFRESYPFTTEKVYLSQIPGLVNMALYVSPIVSGEVIRSRGGSTSEFTPGYVKPKHEVNPQMTLRRLPDEDPQNLADPAYRRRRIIMQNMRDEELAIAQVEEMQAVSAVLKGKYTMTGEAFDPVEVDMGRSAANNITQSGGTEWSKRDKSTYDPTDDIEAYALNASGVVNIIVFDPKGWALFRSFKAVKEKLDTRRGSNSELETAVKDLGEAVSYKGMYGDTAIVVYSGQYVENDVKKNFLPDNTMVLGNTQARGLRTYGCIQDADAQREGINASARYPKNWVTTGDPAREFTMIQSAPLMLLADPDAFVSVQLA", "soluble on expression in E. coli": "not soluble"}, {"sequence": "MSNDQIWDLLGHQIQIELDTGDVRRQESTTGHLMTRDPVSQSLLIAKIEENSTSIKSIEWIPSCSVKSIRKLKNTENPEIHVAIEKYFENDGIEGGSSGAEDSEEDIKKRAHRVVNYLKSHHLDVVEKPNGTYIIAGTVRFERPYHNANLYCDIPIVLKRILKLVEEI", "soluble on expression in E. coli": "not soluble"}, {"sequence": "MSNKNKSYDYVIIGGGSAGSVLGNRLSEDKDKEVLVLEAGRSDYFWDLFIQMPAALMFPSGNKFYDWIYSTDEEPHMGGRKVAHARGKVLGGSSSINGMIYQRGNPMDYEGWAEPEGMETWDFAHCLPYFKKLEKTYGAAPYDKFRGHDGPIKLKRGPATNPLFQSFFDAGVEAGYHKTPDVNGFRQEGFGPFDSQVHRGRRMSASRAYLHPAMKRKNLTVETRAFVTEIHYEGRRATGVTYKKNGKLHTIDANEVILSGGAFNTPQLLQLSGIGDSEFLKSKGIEPRVHLPGVGENFEDHLEVYIQHKCKEPVSLQPSLDIKRMPFIGLQWIFTRTGAAASNHFEGGGFVRSNNEVDYPNLMFHFLPIAVRYDGQKAAVAHGYQVHVGPMYSNSRGSLKIKSKDPFEKPSIRFNYLSTEEDKKEWVEAIRVARNILSQKAMDPFNGGEISPGPEVQTDEEILDWVRRDGETALHPSCSAKMGPASDPMAVVDPLTMKVHGMENLRVVDASAMPRTTNGNIHAPVLMLAEKAADIIRGRKPLEPQYIDYYKHGVHDENEGAIEVKPYAK", "soluble on expression in E. coli": "not soluble"}, {"sequence": "MSNNIVPSSVLPAGENLLTVPDYAERIGQPVTRVFDQIGEHKLICVLDNGIKKIPEAFLSEKGTTNKFVPGVIALLSDGGYTDQEIFKFLFTEDESLPGRPIDAIHGHLAREVMRRAQAMGF", "soluble on expression in E. coli": "soluble"}, {"sequence": "MSNNNLSVISLVSIGEHPTSRRPRRAEQDARAIELGLKLVGDNLQTLHAGELSDDASQQTALRSYLGMGLAEINLLEMPENADAVLVIAEYLKQQKIDIILTGVCAESGESSGMLPYLLAEQLGMAMVTSIAEILSIDEVNKQAEVLQALPRGQRRKLKVDLPFIASVDMAAALPRQSAFGPAMRGQFEATLGANFTDEESSTWQTADAKKRPKRLKIIKAKTAADRFKAATAKASGGGGKVVHGVEESAQAILDLLIEEGLV", "soluble on expression in E. coli": "not soluble"}, {"sequence": "MSNSVTNFEMSSVLPGKKPCQGKNNESQVVQTTPIKKHSVTFKNQSSLGVIDHYARLTNKSHSSVIAEVVDLAIPILEKCNRHNWSINEIKNDLLKFSIKESINRSRGKTEVTLEEYCSLIWKTNIMSPLKIPIADYFQLNANDEFMGKDEKTVIRERLSSLRENYDMEKAIYIYNQRHFDVKHQSVSGYSNIILIHRTTFEGYYFDAGQALLLSTSQLIIFGINEVLRRKGIVMPYPVVCWIDIYHVNEMVVMLPVLRKTDVSNRVNVPDDIIINPYSQESRT", "soluble on expression in E. coli": "soluble"}, {"sequence": "MSNTKNTSDSQESQQSSRKPQRSQATQTSQASQKSQSSQEPRRPKPMEVLREARAQLAELTGMTAESVSSFEQTEEGWVLEVEVLELERVPDTMSLMASYQVELDAEGQLTGYRRARRYERGRADSRGGRKLAAALEHHHHHH", "soluble on expression in E. coli": "soluble"}, {"sequence": "MSNYVIQADQQLLDALRAHYEGALSDRLPAGALFAVKRPDVVITAYRSGKVLFQGKAAEQEAAKWISGASASNETADHQPSALAAHQLGSLSAIGSDEVGTGDYFGPIVVAAAYVDRPHIAKIAALGVKDSKQLNDEAIKRIAPAIMETVPHAVTVLDNPQYNRWQRSGMPQTKMKALLHNRTLVKLVDAIAPAEPEAIIIDEFLKRDSYFRYLSDEDRIIRERVHCLPKAESVHVSVAAASIIARYVFLEEMEQLSRAVGLLLPKGAGAIVDEAAARIIRARGEEMLETCAKLHFANTKKALAIAKRRK", "soluble on expression in E. coli": "soluble"}, {"sequence": "MSPDEDLRLLYLRLIPQLAENRPEFQQAIADSPLFTAYMKLLKRQAELSPRILSALLSAISSIVRSHLPAYLKFQAKNGLTATEKLIQSTKDHKNAVKAGRMIVSFLYTLTDLQGIDEITEEIKNSILKIYTLLDGRSRFVDRADDSEETKEFYEETMKMIKFEIMQMHPDIITPQTRKLLEEHFKESNLRAGLMPIGGWPVIPKNEWPQPPQPPCHKANKNAEPKKEPEPAKKVAPKQETKVDQEAAELARKIQIEEDKTRKRHEIVARFSILDIYTKEELAEKLKLDAEMEMAEAQKVLKEIR", "soluble on expression in E. coli": "not soluble"}, {"sequence": "MSPIDEFTYIKQNKIVYDSNSLIQLYFPIMGSDAMALYDYFVHFFDDGIRRHKFSEVLNHLQYGMPRFQDALVMLTALDLLTVYQATGTYLVKLNQAMSNELFLSNPIYRRLLEKRIGEVAVAELDMKIPKNARDISKKFTDVFSDLGQPKQEVNRSKNVFDLESFKRLMMRDGLRFNNEKDDVLGIYSVSELYHLNWYDTYQLAKQTAINGMIAPQRMKVQQNEGQHIKDNQSFTNNEKVILRESKNDSALVFLEKIKRSRKAVTTSGEKTLLEDLAKMNFLDEVINVMVLYTLNKTKSANLNKAYIMKVANDFAFQNVMTAEDAVLKIRDFSDQKVRTKTETKKKQSNVPEWSNPDYKDEVSPEKEIELEQFKTDALKRLERLGKDGES", "soluble on expression in E. coli": "not soluble"}, {"sequence": "MSPKSVVITGANRGIGLGLVQEFVKDKNIRHIIATARDVEKATDLKAISDPRVTALQLEVTCDKSMDTFVSKVEEIVGSDGLNLLVNNAGNAVDYPCKAKPNRALFAEQLNVNTTSVVILTQKLMPLLIKASSKVSGDQLSASRAAVVTISSGLASMTDFATGGHAPNAFAYRISKAAINMFGRALANDMKDDHILVASIGPGWVKTDMGGEKALLTVEQSTAELVASFNKLNNSHNGGFFQKDLTPYPF", "soluble on expression in E. coli": "not soluble"}, {"sequence": "MSPQYDAIIVGGGHNGLTCGAYLARAGVKVLVVERQPMVGGAAVTGEIAPGYRSSLASYYQGLLQPKVILDLELQKYGFEVIPAAPTVFALEGGRTFTLWDDPEKFAAEIAKFSNVDGAAYAGYRAHMLKIAPHMKQLLWEVPVDPASGKIRDLKRLAGFVWRFRKVGPQFYDIYNLLTMSAWDYLSRWFTSDEVKLVLGFFAGGGGANSSLKTPGSAYMLARGIVRDGGTAAGPAGFMKGGMGAISEAIRRSGEAHGMEVRTACPVERILVENGRAVGVRLEGGEEIRSKIVIANATARTTFTKLLDPAELPEEFNRDIRNIRCESTVFRVNLALSALPEAPVFGQTNPQGSIVPQMTVAPNVAYMERAWHQAQGGEIAEAPFLIVKVPSMVDPTLAPEGHHIMNVFGGHAPYTLARGDWDSRREELWGRVLAVLKTQFPDIESRILHRQIMTPLDLERIFDLPNGHVHHGEISADQMFFRRPSPQFADYRSPVDRLYQASASVHPGGGVTGVPGHNAAKVILEDRRKWSLEHHHHHH", "soluble on expression in E. coli": "soluble"}, {"sequence": "MSPRDVLDSIFAFPPNRDTLGGTSYLIVGNEGNILIDCPALDQTNLNFLRSHGGVRWLFLTHRGAIGRTAEIQQNYGCDILIQEQEAYLLPGLTVTTFTQEFAVTPTAKAIWTPGHSPGSSCLYYNHQGGVLFSGRHLLPNQKGEPVPLRTAKTFHWPRQIKSLQTILETLTPETLQYICPGANTGFLRGKRSIDTAYQRLASLDLKALLQTQPLILEHHHHHH", "soluble on expression in E. coli": "soluble"}, {"sequence": "MSPRRSAAEAQATRGRILGRAAEIASEEGLDGITIGRLAEELEMSKSGVHKHFGTKETLQISTLDKAFVDFWHRVVEPALAEPPGLRRLRAVCANSVGYLEEPLLPGGCLLTAALSEYDGRPGRVRDAVAEVWSRWREQLRADLTAAVDKGELPAGFDVEQALFEIVAAGLALNAAMQLQHDRTAADRARRAIERALAQS", "soluble on expression in E. coli": "soluble"}, {"sequence": "MSPVEESPEEFLARFAAHRVEVRLYPEPWGSPLLEVQTPAGFVYAMDRGAPPAPVGEARVLFHGLARKVARAQGKEGVFREGAAYRLVGTARPLEKGFYLLLARGLPVVVHWEGPMPEEAEVLLWPPLMLFRE", "soluble on expression in E. coli": "soluble"}, {"sequence": "MSQDNSEELIKVEKVEAFFYPIHGIPTMVLYLEDGREFKMFQIPPEIVIALNRLQEKRDYEELLRGDKRENIYDVLAFSSEIKDQLSKIINRVIINDVNEEYGVYIATVEFKFDGVIIEKQLIPSHAVFLAIVSNRPIYVKKNLVDEQEKQERKSGEDV", "soluble on expression in E. coli": "soluble"}, {"sequence": "MSQKEQIKTYKGPAGGWGALKAVTRSWWGSENAVKNIRTMLKTNQNGGFDCPGCAWGESPDSGKVNFCENGAKAVNWEATNRLVDPEFFANHSVSSLSTQTDYWLEYQG", "soluble on expression in E. coli": "not soluble"}, {"sequence": "MSQPVAFVTGCSSGIGRALADAFQRAGYRVWASARKEDDVRALAEAGFQAVQLDVNDAAALARLAEELGVEAAGLDVLVNNAGYGAMGPLLDGGVEAMRRQFETNVFAVVGVTRALFPLLRRKSGLVVNVGSVSGVLVTPFAGAYCASKAAVHALSDALRLELAPFGVEVLEVQPGAIASNFGASASREMDSVVDERSPWWPLRRQIQARAAASQDNPTSAEDFARQLLAAVQRRPRPPLVRIGNGSRALPALARWLPRGLLERLLKKRFGLDTRL", "soluble on expression in E. coli": "not soluble"}, {"sequence": "MSQQPGVLPENMKRYMGRDAQRMNILAGRIIAETVRSTLGPKGMDKMLVDDLGDVVVTNDGVTILREMSVEHPAAKMLIEVAKTQEKEVGDGTTTAVVVAGELLRKAEELLDQNVHPTIVVKGYQAAAQKAQELLKTIACEVGAQDKEILTKIAMTSITGKGAEKAKEKLAEIIVEAVSAVVDDEGKVDKDLIKIEKKSGASIDDTELIKGVLVDKERVSAQMPKKVTDAKIALLNCAIEIKETETDAEIRITDPAKLMEFIEQEEKMLKDMVAEIKASGANVLFCQKGIDDLAQHYLAKEGIVAARRVKKSDMEKLAKATGANVITNIKDLSAQDLGDAGLVEERKISGDSMIFVEECKHPKAVTMLIRGTTEHVIEEVARAVDDAVGVVGCTIEDGRIVSGGGSTEVELSMKLREYAEGISGREQLAVRAFADALEVIPRTLAENAGLDAIEILVKVRAAHASNGNKCAGLNVFTGAVEDMCENGVVEPLRVKTQAIQSAAESTEMLLRIDDVIAAEKLRGAPDMGDMGGMPGMGGMPGMM", "soluble on expression in E. coli": "soluble"}, {"sequence": "MSQSDEASVAEPTVVVATPVAVAVTAPATHPRKPPALVISTIACPTIYEQAPSKPASPTMPLSPYEGITADLMQRIQLFSSQFDHARLSPNYATSDLGSSARSSFSSTTSSFLTYRDRSVDFDEAGKELISPFDCDTNCSGTPYSLSTNSGNHFSFEARSVSSLGHSTAHFNQLLAAGAAYELSRERSRSESDMQPTQEDDVRHLNTSTISVPIYAKKPLHKFGGEIKRSSSTPPPTSDEREQVEQRLLLRPSSGMEIKKDLETTNSFVSSWAREQIFAMQNATMYNLLTARSAEDCSTISTPGPLKVFPRSKDDMTFAPRDDSSRAKQMQYPCTLCGQAFAVHDRLAKHIASRHRQRSCTLDDASKVHKCNMCSKSFSRSDMLTRHMRLHTGAKPYSCPTCNQVFSRSDHLSTHLRTHTGEKPYACPMCNYSASRRDMISRHMRTHSLTDDSSISTPISQLSIRSATTSPLPPKIGSTATVEIGSGLLSAFKPILSASSSNLLSVSSPFQSLSLSTPPSPSFAPIVLNRQLSFDVTMRNTTS", "soluble on expression in E. coli": "soluble"}]}]}
